Test results as given in the supplement of paper PMC9170038.

System: MS2 coat protein
Experiment: apparent KD of MS2 coat protein; higher = weaker reporter binding
Details: Eterna round: R107
Method in brief: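 Illumina sequencing clusters were used for on-chip transcription of designed RNA switches. Titration with SNAP-549-labelled MS2 coat protein followed, in twofold steps from 0.7 or 1.5 nM to 3 µM in 100 mM Tris-HCl pH 7.5, 80 mM KCl, 4 mM MgCl2, without or with constant ligand. Apparent KD is each design's median of fits to normalised cluster binding curves.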

[1] = input ligand: theophylline 20 uM
[2] = input ligand: tryptophan 2.4 mM
[3] = input ligand: theophylline 2 mM

Sequence | apparent KD of MS2 coat protein (input ligand: arginine 13.2 mM) [nM] | apparent KD of MS2 coat protein [1] [nM] | apparent KD of MS2 coat protein [2] [nM] | apparent KD of MS2 coat protein [3] [nM] | apparent KD of MS2 coat protein (input ligand: none) [nM]
GUACAUGAGGAUCACCCAUGUGGUAGGGAUACCAGCCAGAAGAAAGGCCCUUGGCAGCUUGUAUUUAGUGUGGGUUUGUUUGUUC [Exclusion - Theophylline A] | 29 | 40.3 | 25.6 | – | –
GUACCACAGUCGGCCGCCACUAAGUUGUAUUCCAGCAGGACGAAACAUGAGGAUCACCCAUGUCCUAGGACCGGGACUUCCGUCG [theeternabot_sameState_MS2_Trp_B_41] | 16.9 | 25.2 | – | 25.6 | –
GUGUUAUGGUCGGCCGCCACUCUGACAUGAGGAUCACCCAUGUUGUACAUGAGGAUCACCCAUGUGAGGACCGGGACACGUGCGA [Exclusion Tryptophan B GF10] | 203 | 363 | – | 476 | –
UAAAACAUGAGGAUCACCCAUGUAAUUGAUACCAGAGUGAUGAUCCUCCCUUGGCAGCAAAUAACGCAUUGGAAACAAUGCGAAA [Mat - Same State Theophlline A - Mod of Eli - D26] | 51.4 | 91.6 | 47.8 | – | –
UAAAAUAAUAAUGAUACCAGCCCUCCCUCCCGGGACAUGAGGAUCACCCAUGUCUCUCCCGGCCCUUGGCAGCAUAAAUAAUAAU [Same Stare - Theophylline B] | 12.1 | 15 | 12.1 | – | –
UAACAUGAGGAUCACCCAUGUUUAGAAGAACGAGGACCGGUACGGCCGCCACUCGAAAAGUGGAAGAAAAGAGGGAUAGAAUGAU [Same State Trp A GF1] | 14 | 16 | – | 12.2 | –
UAAUAUCACAUAUUAUGGGUGUAAUGUGAUACCAGCUAGGAAACUAGCCCUUGGCAGCACAUGAGGAUCACCCAUGUAAGCUGUA [(T1)'-(M)'-(T1)-(T2)-(M1)-(M2)-(T2)'_Design4_2/19/17] | 29.1 | 123 | 68.9 | – | –
UAAUGUGAGAGAAGGAGCGGAAGUCUCGUUACAACAUGAGGAUCACCCAUGUAACGUACAGUCCAGGUAGGUCGCUCUCGGGCGC [pqacmullin] | 16.9 | 21.4 | 15.5 | 18.1 | 14.8
UACAUGAGGAUCACCCAUGUCUGAACUGAAGGAGCGCUAAAUAAGGCAGGUAGGUCGCGGAAUUUUGUGUGCAUAUGCAUAUGGG [9.L] | 34.5 | 39.4 | 38.2 | 37.9 | 36.4
UAGCGAUCUCGUUAAAGGAUCCCAUUUGAUACCAGAGAACUUUGCCUCCCUUGGCAGCAAGUGACAUGAGGAUCACCCAUGUUGA [theeternabot_exclusion_MS2_Theo_A_3] | 16.4 | 20 | 16.4 | – | –
UAGUUGCUGACGGCCGCCACUAGAACAUGAGGAUCACCCAUGUAUUCUAGUGGACAUGGGUGGACUAGGACCGGGUCAGCAACAU [(Trp1)-(Ms2)-(T)'-(M)'-(Trp2)_Design9] | 21 | 37.8 | 30.8 | 21 | 20.6
UAUAGUACCAGACAUGAGGAUCACCCAUGUCGAGGACCGGUACGGCCGCCACUCGGCAGUUUGCGUCCUCAGGUACUCCGGGUCA [Larisotexe] | 17.6 | 28.3 | – | 26.1 | –
UAUAUAGAUGGACGUCAUCUAGAUGCAGAAGGAGCGUAGGAAACUACAGGUAGGUCGCUGAGGUACAUGAGGAUCACCCAUGUAG [SSArg A #21 Slice of Pi] | 22.7 | 28.8 | 21.5 | 27 | 18.9
UAUAUUGUGAUGGAUACCAGCAGAGAAAACGUUUAUCCUAACAUGAGGAUCACCCAUGUAUGCCCUUGGCAGCUGUUGUGGUAUA [8.P] | 34.7 | 55.3 | 38.6 | – | –
UAUCCACAUGAGGAUCACCCAUGUAGGGAAGGAGCGGUGAUUUCACCAGGUAGGUCGCCUUGCUCAGGGUUGCCGGUGGAAUCGU [Exclusion - Arginine A (Freestyle 34)] | 24.9 | 19.7 | 9.73 | 13.3 | 12.7
UAUCCACAUGAGGAUCACCCAUGUUAGGAAGGAGCGGUGGAUGCACCAGGUAGGUCGCCUAGCUGAGGACUGUCGGUGGAUUCGU [Exclusion - Arginine A (Freestyle 21)] | 56.5 | 92.1 | 94.9 | 131 | 86.5
UAUCGUCAGACGGCCGCCACUAGAACAUGAGGAUCACCCAUGUACUAGUGGCAUACCUCAUGAACUAGGACCGGGUCUGACGAAU [(Trp1)-(Ms2)-(T)'-(M)'-(Trp2)_Design10] | 10.2 | 11.8 | – | 10.2 | –
UAUUUGGUGCGCGAGUGUUGGAUAAUUGAUACCAGUGAAGAAGAGCGCCCUUGGCAGCGAAUCCUAACAUGAGGAUCACCCAUGU [5.T] | 35.9 | 55.3 | 35.4 | – | –
UCACGACGGAUGGAUACCAGCGACAUGAGGAUCACCCAUGUAUGAGGAUCAGCCAUGUUAUGCCCUUGGCAGCCACGAAGGUCAU [YYYMULLIN] | 13.2 | 29.3 | 18.2 | 195 | 19

Sequence | apparent KD of MS2 coat protein (input ligand: arginine 13.2 mM) [nM] | apparent KD of MS2 coat protein [1] [nM] | apparent KD of MS2 coat protein [2] [nM] | apparent KD of MS2 coat protein [3] [nM] | apparent KD of MS2 coat protein (input ligand: none) [nM]
UCACGUGGGAAUGAUACCAGCCACAUGAGGAUCACCCAUGUGCAUGGUGUGAGCUUCACGGGCCCUUGGCAGCAUUUCAAGUCGC [Agelaus] | 39.9 | 93.1 | 37.9 | – | –
UCGAUGGUACCCGAUACCAGCAAUACAUCACAGACCUGAUACAUGAGGAUCACCCAUGUGUGCCCUUGGCAGCGGGUCCUGAAAA [theeternabot_exclusion_MS2_Theo_B_25] | 17.5 | 28.5 | 20.6 | – | –
UCGCUCGCCGCAAGGCGAGCGAGUUGCGAUACCAGCCCGGAAACGGGCCCUUGGCAGCGCACAUGAGGAUCACCCAUGUCAUGUU [#1 Exclusion - Theophylline A Attempt #4 (HarryS)] | 24.7 | 31.3 | 16.1 | 30.4 | 25
UCGCUCUGGGUGGGAUCCGGAGAUGUGGAAGGAGCGCUGGUUACAGCAGGUAGGUCGCCAACGGACAUGAGGAUCACCCAUGUAC [Same State - Arginine A (Freestyle 16)] | 53.3 | 49.4 | 36.2 | 39.5 | 41.3
UCGGGCAGAGCGGCCGCCACUGUAUGGCAUGCGGAUGAAGGAACAUGAGGAUCACCCAUGUAGAUUAGGACCGGGCUUGCGGAGA [p''pmullin] | 29.1 | 22.9 | 20 | 17.7 | 19.8
UCGGGCAGAGCGGCCGCCACUGUAUGGCGUGCGGAUGACGGAACAUGAGGAUCACCCAUGUUGUUUAGGACCGGGCUUGCCGCGA [cocmullin] | 14 | 14.7 | – | 11.5 | –
UCGUAUGCGGCGGCCGCCACUCGCGGAUAACGAGAGCUUAACAUGAGGAUCACCCAUGUGUCAUGGAGGACCGGGCCCAUUCACA [popmullin] | 30.4 | 40.2 | – | 37.5 | –
UCGUGUAUAACGGAUACCAGUGAGAAGGAUACAUGAGGAUCACCCAUGUGAGUUGAUGUACACCCUUGGCAGCUGUAUAUAUCUA [llpmullin] | 58.3 | 81.9 | 73.3 | – | –
UCGUGUGUUUCGGAUACCAGUGAAAUCGAUACAUGAGGAUCACCCAUGUGAGAGGAUGUACACCCUUGGCAGCUGGCUGUAGCGG [yyzmullin] | 32.1 | 56.9 | 44.3 | – | –
UCUGUUUGCUUUGUUUGUUUCUUCUUUGAGCGAGGACCGGUACGGCCGCCACUCGGGUUACAUGAGGAUCACCCAUGUGGUUUCU [Interesting] | 72.3 | 163 | – | 149 | –
UGACAUUGCUCAGAUACCAGACAUGAGGAUCACCCAUGUGCCAAAUACGUACAAAUAAAUGUCCCUUGGCAGCUGAGCAAUGUCU [TheoBX 12 #MS2Left #Theo2] | 16.2 | 22.2 | 14.4 | – | –
UGAGAGGGCAGAAGGAGCGACAUGAGGAUCACCCAUGUCUCCCGUUAUGGGAGUUCUUUAGGUCAGGUAGGUCGCUGGCCUCUCA [#1 Exclusion - Arginine B Attempt #9 (Inspired by Omei)] | 54 | 135 | 99.5 | 146 | 117
UGAUAUAGGGAGCCGUAUCAGAAACCUGAAGGAGCGCCGGAAAAGGCAGGUAGGUCGCGGGAACAUGAGGAUCACCCAUGUAUUC [dancer_small] | 17.4 | 21.2 | 18.3 | 19.2 | 19
UGAUAUGUAGGAAGGAGCGCAUACUUCACAUGAGGAUCACCCAUGUCAAGACGUGAGUCAGUGCAGGUAGGUCGCCUAGUUAUGA [Same State - Arginine B (Freestyle 20)] | 30.2 | 41 | 36 | 36.9 | 44.9
UGCAUUAUACAUGGAUCACCCAUGUAGACACGAGGACCGGUACGGCCGCCACUCGGAAGAGGGAACAUGAGGAUCACCCAUGUGA [Try A SS t1] | 25.6 | 73.1 | – | 55 | –
UGCCUAAAGUCGGCCGCCACUGAUGGUAUCCUCUCCUCGAGGUCACACAUGAGGAUCACCCAUGUCAGGACCGGGACUAGUGAGA [theeternabot_exclusion_MS2_Trp_B_36] | 7.11 | 9.65 | – | 7.48 | –
UGGUACAUGGCGGCCGCCACUUCACGUAAAAUAAAAACUUGAGGAACACCCAAGUAAUAAGUUGGGAGGACCGGGUCAUGUACCU | 35.3 | 41.7 | 26.1 | 39.1 | 36.2
UGGUACAUGGCGGCCGCCACUUCACGUAAAAUAAAAACUUGAGGAUCACCCAAGUAAUAAGUUGGGAGGACCGGGUCAUGUACCU | 18.4 | 23.2 | 14 | 19.2 | –
